Here are results for six molecules from US20210139548A1 (published 2021).

Usually Ki stands for a measure of affinity in units of concentration, obtained from inhibition or displacement. Low values mean higher affinity, high ones lower affinity.

*1 amine or outer side, *2 acyl side, *3 side chain or, on linkers, in order; H or OH if unused. Side-chain parts run from the residue outwards. The star is where a group is joined. C18 diacid = O=C(O)CCCCCCCCCCCCCCCCC(=O)*; γGlu = O=C(O)[C@H](CCC(=O)[*:2])N[*:1]; Isovaleryl = CC(C)CC(=O)*; AEEA = NCCOCCOCC(=O)O

T1: human neuropeptide Y2 receptor (human, UniProt P49146 1-381)
T1 construct: whole, on cells; also called hNPY2 receptor; hNPY2-R
T1 sequence (looked up): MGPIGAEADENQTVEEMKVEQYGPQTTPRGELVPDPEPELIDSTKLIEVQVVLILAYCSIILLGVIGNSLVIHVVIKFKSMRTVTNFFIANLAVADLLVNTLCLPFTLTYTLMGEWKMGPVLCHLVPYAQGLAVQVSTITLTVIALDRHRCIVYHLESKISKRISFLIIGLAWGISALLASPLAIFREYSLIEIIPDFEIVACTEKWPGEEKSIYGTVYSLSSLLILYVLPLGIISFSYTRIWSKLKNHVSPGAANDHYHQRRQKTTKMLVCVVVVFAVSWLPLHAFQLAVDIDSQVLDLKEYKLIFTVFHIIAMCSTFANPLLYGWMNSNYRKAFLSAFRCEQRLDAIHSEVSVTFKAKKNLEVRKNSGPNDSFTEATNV

B1: Compound 9 (peptide)
peptide: Isovaleryl-APEK([AEEA-AEEA-γGlu-C18 diacid])PEEDASPEEIQRYYVELRHYYNWLTRQRY-NH2
SMILES: CC[C@H](C)[C@H](NC(=O)[C@H](CCC(=O)O)NC(=O)[C@H](CCC(=O)O)NC(=O)[C@@H]1CCCN1C(=O)[C@H](CO)NC(=O)[C@H](C)NC(=O)[C@H](CC(=O)O)NC(=O)[C@H](CCC(=O)O)NC(=O)[C@H](CCC(=O)O)NC(=O)[C@@H]1CCCN1C(=O)[C@H](CCCCNC(=O)COCCOCCNC(=O)COCCOCCNC(=O)CC[C@H](NC(=O)CCCCCCCCCCCCCCCCC(=O)O)C(=O)O)NC(=O)[C@H](CCC(=O)O)NC(=O)[C@@H]1CCCN1C(=O)[C@H](C)NC(=O)CC(C)C)C(=O)N[C@@H](CCC(N)=O)C(=O)N[C@@H](CCCNC(=N)N)C(=O)N[C@@H](Cc1ccc(O)cc1)C(=O)N[C@@H](Cc1ccc(O)cc1)C(=O)N[C@H](C(=O)N[C@@H](CCC(=O)O)C(=O)N[C@@H](CC(C)C)C(=O)N[C@@H](CCCNC(=N)N)C(=O)N[C@@H](Cc1c[nH]cn1)C(=O)N[C@@H](Cc1ccc(O)cc1)C(=O)N[C@@H](Cc1ccc(O)cc1)C(=O)N[C@@H](CC(N)=O)C(=O)N[C@@H](Cc1c[nH]c2ccccc12)C(=O)N[C@@H](CC(C)C)C(=O)N[C@H](C(=O)N[C@@H](CCCNC(=N)N)C(=O)N[C@@H](CCC(N)=O)C(=O)N[C@@H](CCCNC(=N)N)C(=O)N[C@@H](Cc1ccc(O)cc1)C(N)=O)[C@@H](C)O)C(C)C
B2: Compound 13 (peptide)
peptide: Isovaleryl-APEK([AEEA-AEEA-γGlu-C18 diacid])PEEDAAPEELQQYYVSLRHYYNWLTRQRY-NH2
SMILES: CC(C)CC(=O)N[C@@H](C)C(=O)N1CCC[C@H]1C(=O)N[C@@H](CCC(=O)O)C(=O)N[C@@H](CCCCNC(=O)COCCOCCNC(=O)COCCOCCNC(=O)CC[C@H](NC(=O)CCCCCCCCCCCCCCCCC(=O)O)C(=O)O)C(=O)N1CCC[C@H]1C(=O)N[C@@H](CCC(=O)O)C(=O)N[C@@H](CCC(=O)O)C(=O)N[C@@H](CC(=O)O)C(=O)N[C@@H](C)C(=O)N[C@@H](C)C(=O)N1CCC[C@H]1C(=O)N[C@@H](CCC(=O)O)C(=O)N[C@@H](CCC(=O)O)C(=O)N[C@@H](CC(C)C)C(=O)N[C@@H](CCC(N)=O)C(=O)N[C@@H](CCC(N)=O)C(=O)N[C@@H](Cc1ccc(O)cc1)C(=O)N[C@@H](Cc1ccc(O)cc1)C(=O)N[C@H](C(=O)N[C@@H](CO)C(=O)N[C@@H](CC(C)C)C(=O)N[C@@H](CCCNC(=N)N)C(=O)N[C@@H](Cc1c[nH]cn1)C(=O)N[C@@H](Cc1ccc(O)cc1)C(=O)N[C@@H](Cc1ccc(O)cc1)C(=O)N[C@@H](CC(N)=O)C(=O)N[C@@H](Cc1c[nH]c2ccccc12)C(=O)N[C@@H](CC(C)C)C(=O)N[C@H](C(=O)N[C@@H](CCCNC(=N)N)C(=O)N[C@@H](CCC(N)=O)C(=O)N[C@@H](CCCNC(=N)N)C(=O)N[C@@H](Cc1ccc(O)cc1)C(N)=O)[C@@H](C)O)C(C)C
B3: Compound 10 (peptide)
peptide: Isovaleryl-APEK([AEEA-AEEA-γGlu-C18 diacid])PEADASPEETQRYYVSLRHYYNWLTRQRY-NH2
SMILES: CC(C)CC(=O)N[C@@H](C)C(=O)N1CCC[C@H]1C(=O)N[C@@H](CCC(=O)O)C(=O)N[C@@H](CCCCNC(=O)COCCOCCNC(=O)COCCOCCNC(=O)CC[C@H](NC(=O)CCCCCCCCCCCCCCCCC(=O)O)C(=O)O)C(=O)N1CCC[C@H]1C(=O)N[C@@H](CCC(=O)O)C(=O)N[C@@H](C)C(=O)N[C@@H](CC(=O)O)C(=O)N[C@@H](C)C(=O)N[C@@H](CO)C(=O)N1CCC[C@H]1C(=O)N[C@@H](CCC(=O)O)C(=O)N[C@@H](CCC(=O)O)C(=O)N[C@H](C(=O)N[C@@H](CCC(N)=O)C(=O)N[C@@H](CCCNC(=N)N)C(=O)N[C@@H](Cc1ccc(O)cc1)C(=O)N[C@@H](Cc1ccc(O)cc1)C(=O)N[C@H](C(=O)N[C@@H](CO)C(=O)N[C@@H](CC(C)C)C(=O)N[C@@H](CCCNC(=N)N)C(=O)N[C@@H](Cc1c[nH]cn1)C(=O)N[C@@H](Cc1ccc(O)cc1)C(=O)N[C@@H](Cc1ccc(O)cc1)C(=O)N[C@@H](CC(N)=O)C(=O)N[C@@H](Cc1c[nH]c2ccccc12)C(=O)N[C@@H](CC(C)C)C(=O)N[C@H](C(=O)N[C@@H](CCCNC(=N)N)C(=O)N[C@@H](CCC(N)=O)C(=O)N[C@@H](CCCNC(=N)N)C(=O)N[C@@H](Cc1ccc(O)cc1)C(N)=O)[C@@H](C)O)C(C)C)[C@@H](C)O
B4: Compound 16 (peptide)
peptide: Isovaleryl-APEK([AEEA-AEEA-γGlu-C18 diacid])PEEDASPEETQRYYVTLRHYYNWLTRQRY-NH2
SMILES: CC(C)CC(=O)N[C@@H](C)C(=O)N1CCC[C@H]1C(=O)N[C@@H](CCC(=O)O)C(=O)N[C@@H](CCCCNC(=O)COCCOCCNC(=O)COCCOCCNC(=O)CC[C@H](NC(=O)CCCCCCCCCCCCCCCCC(=O)O)C(=O)O)C(=O)N1CCC[C@H]1C(=O)N[C@@H](CCC(=O)O)C(=O)N[C@@H](CCC(=O)O)C(=O)N[C@@H](CC(=O)O)C(=O)N[C@@H](C)C(=O)N[C@@H](CO)C(=O)N1CCC[C@H]1C(=O)N[C@@H](CCC(=O)O)C(=O)N[C@@H](CCC(=O)O)C(=O)N[C@H](C(=O)N[C@@H](CCC(N)=O)C(=O)N[C@@H](CCCNC(=N)N)C(=O)N[C@@H](Cc1ccc(O)cc1)C(=O)N[C@@H](Cc1ccc(O)cc1)C(=O)N[C@H](C(=O)N[C@H](C(=O)N[C@@H](CC(C)C)C(=O)N[C@@H](CCCNC(=N)N)C(=O)N[C@@H](Cc1c[nH]cn1)C(=O)N[C@@H](Cc1ccc(O)cc1)C(=O)N[C@@H](Cc1ccc(O)cc1)C(=O)N[C@@H](CC(N)=O)C(=O)N[C@@H](Cc1c[nH]c2ccccc12)C(=O)N[C@@H](CC(C)C)C(=O)N[C@H](C(=O)N[C@@H](CCCNC(=N)N)C(=O)N[C@@H](CCC(N)=O)C(=O)N[C@@H](CCCNC(=N)N)C(=O)N[C@@H](Cc1ccc(O)cc1)C(N)=O)[C@@H](C)O)[C@@H](C)O)C(C)C)[C@@H](C)O
B5: Compound 15 (peptide)
peptide: Isovaleryl-APEK([AEEA-AEEA-γGlu-C18 diacid])PEEDASPEEIQRYEVSLRHYYNWLTRQRY-NH2
SMILES: CC[C@H](C)[C@H](NC(=O)[C@H](CCC(=O)O)NC(=O)[C@H](CCC(=O)O)NC(=O)[C@@H]1CCCN1C(=O)[C@H](CO)NC(=O)[C@H](C)NC(=O)[C@H](CC(=O)O)NC(=O)[C@H](CCC(=O)O)NC(=O)[C@H](CCC(=O)O)NC(=O)[C@@H]1CCCN1C(=O)[C@H](CCCCNC(=O)COCCOCCNC(=O)COCCOCCNC(=O)CC[C@H](NC(=O)CCCCCCCCCCCCCCCCC(=O)O)C(=O)O)NC(=O)[C@H](CCC(=O)O)NC(=O)[C@@H]1CCCN1C(=O)[C@H](C)NC(=O)CC(C)C)C(=O)N[C@@H](CCC(N)=O)C(=O)N[C@@H](CCCNC(=N)N)C(=O)N[C@@H](Cc1ccc(O)cc1)C(=O)N[C@@H](CCC(=O)O)C(=O)N[C@H](C(=O)N[C@@H](CO)C(=O)N[C@@H](CC(C)C)C(=O)N[C@@H](CCCNC(=N)N)C(=O)N[C@@H](Cc1c[nH]cn1)C(=O)N[C@@H](Cc1ccc(O)cc1)C(=O)N[C@@H](Cc1ccc(O)cc1)C(=O)N[C@@H](CC(N)=O)C(=O)N[C@@H](Cc1c[nH]c2ccccc12)C(=O)N[C@@H](CC(C)C)C(=O)N[C@H](C(=O)N[C@@H](CCCNC(=N)N)C(=O)N[C@@H](CCC(N)=O)C(=O)N[C@@H](CCCNC(=N)N)C(=O)N[C@@H](Cc1ccc(O)cc1)C(N)=O)[C@@H](C)O)C(C)C
B6: Compound 14 (peptide)
peptide: Isovaleryl-APEK([AEEA-AEEA-γGlu-C18 diacid])PEADATPEELQRYYVSLRHYYNWLTRQRY-NH2
SMILES: CC(C)CC(=O)N[C@@H](C)C(=O)N1CCC[C@H]1C(=O)N[C@@H](CCC(=O)O)C(=O)N[C@@H](CCCCNC(=O)COCCOCCNC(=O)COCCOCCNC(=O)CC[C@H](NC(=O)CCCCCCCCCCCCCCCCC(=O)O)C(=O)O)C(=O)N1CCC[C@H]1C(=O)N[C@@H](CCC(=O)O)C(=O)N[C@@H](C)C(=O)N[C@@H](CC(=O)O)C(=O)N[C@@H](C)C(=O)N[C@H](C(=O)N1CCC[C@H]1C(=O)N[C@@H](CCC(=O)O)C(=O)N[C@@H](CCC(=O)O)C(=O)N[C@@H](CC(C)C)C(=O)N[C@@H](CCC(N)=O)C(=O)N[C@@H](CCCNC(=N)N)C(=O)N[C@@H](Cc1ccc(O)cc1)C(=O)N[C@@H](Cc1ccc(O)cc1)C(=O)N[C@H](C(=O)N[C@@H](CO)C(=O)N[C@@H](CC(C)C)C(=O)N[C@@H](CCCNC(=N)N)C(=O)N[C@@H](Cc1c[nH]cn1)C(=O)N[C@@H](Cc1ccc(O)cc1)C(=O)N[C@@H](Cc1ccc(O)cc1)C(=O)N[C@@H](CC(N)=O)C(=O)N[C@@H](Cc1c[nH]c2ccccc12)C(=O)N[C@@H](CC(C)C)C(=O)N[C@H](C(=O)N[C@@H](CCCNC(=N)N)C(=O)N[C@@H](CCC(N)=O)C(=O)N[C@@H](CCCNC(=N)N)C(=O)N[C@@H](Cc1ccc(O)cc1)C(N)=O)[C@@H](C)O)C(C)C)[C@@H](C)O

The experiment deals with T1, human neuropeptide Y2 receptor. The experiment can be described thus: radioligand competition (125I-PYY(1-36)), hNPY2R membranes. The protocol: The filtration RLB assay was carried out in 96-well plates in a final volume of 100 μl per well. Freeze-dried test peptides were dissolved in 100% dimethyl sulfoxide (DMSO) to stock solutions of 1 mM and serial dilutions were performed in assay buffer (50 mM HEPES, 5 mM MgCl₂, 1 mM CaCl₂, pH 7.4) containing 0.2% ovalbumin. […] Next, 80 μL membranes (HTS066M, ChemiSCREEN™ Human Neuropeptide Y2 Receptor Membrane Preparation, CHEMICON) were added to each well to give a final protein concentration of 0.5 μg/well. The plates were sealed and incubated at room temperature for 2 hours in a plate shaker set at 400 rpm. The incubation was stopped by vacuum filtration onto 0.5% poly-ethylene amine (PEI) presoaked GF/C filters using a 96-well FilterMate™ harvester (Perkin Elmer) followed by four washes with 300 μl/well ice-cold wash buffer (50 mM HEPES, 500 mM NaCl, pH7.4). Filter plates were then dried for 60 min at room temperature and the bottom of the plates was sealed with backing tape UniFilter-96. Finally, 50 μl/well scintillation counter cocktail (Microscint20, Packard) was added and the radioactivity was counted in the Packard TopCount NXT scintillation counter. IC₅₀ values (the half maximal inhibitory concentration of the agonist) were calculated by nonlinear regression analysis of sigmoidal dose-response curves.
Background: In a radioligand displacement assay an active substance lowers the binding of a labelled ligand.
In the case of B1, the Ki was 1.22 nM.

Turning to B2, the Ki came out at 1.29 nM.

Take B3: the Ki turned out to be 1.28 nM.

With B4, the Ki is 3.09 nM.

Molecule B5 came in with an inhibitory constant (Ki) of 2.89 nM.

B6 showed a Ki of 0.31 nM.
